First the molecules themselves.
B1: glmS ribozyme (parent)
chain: AUAAAAGCGCCAGAACUACAGAAAUGUAGUUGACGAGGAGGAGGUUUAUCGAAUUUUCGGCGGAUGCCUCCAAA

Common to all, as to details: with glucosamine-6-phosphate
The variants in series [1] derive from B1. In words: self-cleavage kobs at 40 uM GlcN6P; higher = faster cleavage; RNA array. The method, boiled down:
(§1)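 E. coli RNA polymerase transcribed barcoded ribozyme variants in situ on sequenced MiSeq chips, which were tracked via a hybridised Cy3 probe at 37 °C. Tiles were imaged over ~14 h after glucosamine-6-phosphate (40 μM to 10 mM) in HEPES/KCl/Mg(OAc)2 buffer was flowed in. Normalised per-tile medians were fit to one- or two-exponential decays for kobs, and kcat and KM came from weighted Michaelis–Menten fits.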

Series [2] covers variants of B1. Description: self-cleavage kobs at 10000 uM GlcN6P; higher = faster cleavage; RNA array. The gist of the method: as §1
Series [3] covers variants of B1. Description: self-cleavage kobs at 160 uM GlcN6P; higher = faster cleavage; RNA array. The method, boiled down: as §1
Variants of B1 are the subject of series [4]. In words: self-cleavage kobs at 640 uM GlcN6P; higher = faster cleavage; RNA array. The method, boiled down:
as §1

Variants of B1 are the subject of series [5]. Description: self-cleavage kobs at 2500 uM GlcN6P; higher = faster cleavage; RNA array. The gist of the method: as §1

± gives the standard error. Variants at the floor of the assay were thinned out.

Take G13C C16A G37U: the “self-cleavage kobs at 40 uM GlcN6P” value in the series with glucosamine-6-phosphate [1] is below 1e-05 s⁻¹. In the series with glucosamine-6-phosphate [2], the “self-cleavage kobs at 10000 uM GlcN6P” value was below 1e-05 s⁻¹.
As to A39U G40U C70U, the “self-cleavage kobs at 40 uM GlcN6P” value in the series with glucosamine-6-phosphate [1] turned out to be 9.82e-05 ± 1.8e-05 s⁻¹. Besides, in the series with glucosamine-6-phosphate [3], the “self-cleavage kobs at 160 uM GlcN6P” value is 0.000392 ± 6.8e-05 s⁻¹. Moreover, the “self-cleavage kobs at 640 uM GlcN6P” value with glucosamine-6-phosphate [4] is 0.000466 ± 7.4e-05 s⁻¹. Moreover, in the series with glucosamine-6-phosphate [5], the “self-cleavage kobs at 2500 uM GlcN6P” value was 0.00127 ± 0.0003 s⁻¹. In addition, the “self-cleavage kobs at 10000 uM GlcN6P” value with glucosamine-6-phosphate [2] is 0.00219 ± 0.00054 s⁻¹.
On to A42C G43U A48G G62C C67A C70G, for which the “self-cleavage kobs at 40 uM GlcN6P” value with glucosamine-6-phosphate [1] is below 1e-05 s⁻¹. In the series with glucosamine-6-phosphate [4], the “self-cleavage kobs at 640 uM GlcN6P” value is below 1e-05 s⁻¹. Besides, in the series with glucosamine-6-phosphate [5], the “self-cleavage kobs at 2500 uM GlcN6P” value is below 1e-05 s⁻¹.
Turning to U55C C61U C68U, in the series with glucosamine-6-phosphate [1], the “self-cleavage kobs at 40 uM GlcN6P” value is below 1e-05 s⁻¹. The “self-cleavage kobs at 10000 uM GlcN6P” value in the series with glucosamine-6-phosphate [2] was below 1e-05 s⁻¹.
With A6U C10G A42G C50G C67A C70A, in the series with glucosamine-6-phosphate [1], the “self-cleavage kobs at 40 uM GlcN6P” value was found to be 0.000143 ± 4.1e-05 s⁻¹. For the same variant, the “self-cleavage kobs at 10000 uM GlcN6P” value in the series with glucosamine-6-phosphate [2] is 9.95e-05 ± 2.4e-05 s⁻¹.
On to G35A U69A, for which the “self-cleavage kobs at 40 uM GlcN6P” value in the series with glucosamine-6-phosphate [1] is below 1e-05 s⁻¹. The “self-cleavage kobs at 160 uM GlcN6P” value with glucosamine-6-phosphate [3] is below 1e-05 s⁻¹. Also, the “self-cleavage kobs at 640 uM GlcN6P” value with glucosamine-6-phosphate [4] is below 1e-05 s⁻¹. Further, in the series with glucosamine-6-phosphate [5], the “self-cleavage kobs at 2500 uM GlcN6P” value is below 1e-05 s⁻¹.
Turning to G60C C67A, the “self-cleavage kobs at 40 uM GlcN6P” value with glucosamine-6-phosphate [1] is below 1e-05 s⁻¹. For the same variant, in the series with glucosamine-6-phosphate [5], the “self-cleavage kobs at 2500 uM GlcN6P” value was below 1e-05 s⁻¹.
As for U49A G62C, the “self-cleavage kobs at 40 uM GlcN6P” value with glucosamine-6-phosphate [1] is below 1e-05 s⁻¹. The “self-cleavage kobs at 10000 uM GlcN6P” value with glucosamine-6-phosphate [2] was below 1e-05 s⁻¹.
Take G7U A33U A52G: in the series with glucosamine-6-phosphate [1], the “self-cleavage kobs at 40 uM GlcN6P” value was below 1e-05 s⁻¹.
On the same count and under the same terms, as for C11U A48U G51U, the figure is below 1e-05 s⁻¹; as for A14C A48G U69C, below 1e-05 s⁻¹.
For A12U A14G C16G, the “self-cleavage kobs at 40 uM GlcN6P” value with glucosamine-6-phosphate [1] is 0.000643 ± 0.00021 s⁻¹.
Turning to C10U A36G C71G, the “self-cleavage kobs at 40 uM GlcN6P” value with glucosamine-6-phosphate [1] is below 1e-05 s⁻¹. Also, in the series with glucosamine-6-phosphate [2], the “self-cleavage kobs at 10000 uM GlcN6P” value was below 1e-05 s⁻¹.
Regarding C11G U30C, in the series with glucosamine-6-phosphate [1], the “self-cleavage kobs at 40 uM GlcN6P” value is below 1e-05 s⁻¹. The “self-cleavage kobs at 640 uM GlcN6P” value with glucosamine-6-phosphate [4] is below 1e-05 s⁻¹.
For the variant C10G C16G G40U, the “self-cleavage kobs at 40 uM GlcN6P” value with glucosamine-6-phosphate [1] is below 1e-05 s⁻¹. Besides, in the series with glucosamine-6-phosphate [5], the “self-cleavage kobs at 2500 uM GlcN6P” value is below 1e-05 s⁻¹.
Take A64G C68G C71A: the “self-cleavage kobs at 40 uM GlcN6P” value in the series with glucosamine-6-phosphate [1] is below 1e-05 s⁻¹. In the series with glucosamine-6-phosphate [3], the “self-cleavage kobs at 160 uM GlcN6P” value was below 1e-05 s⁻¹. Further, the “self-cleavage kobs at 640 uM GlcN6P” value with glucosamine-6-phosphate [4] is below 1e-05 s⁻¹. Also, the “self-cleavage kobs at 10000 uM GlcN6P” value with glucosamine-6-phosphate [2] is below 1e-05 s⁻¹.
As for C10A C70G, in the series with glucosamine-6-phosphate [1], the “self-cleavage kobs at 40 uM GlcN6P” value was determined as 2.53e-05 ± 1e-05 s⁻¹. Also, the “self-cleavage kobs at 640 uM GlcN6P” value in the series with glucosamine-6-phosphate [4] stood at 0.000116 ± 1.8e-05 s⁻¹.
For C8G G43U U65A C71G, the “self-cleavage kobs at 40 uM GlcN6P” value with glucosamine-6-phosphate [1] is below 1e-05 s⁻¹. The “self-cleavage kobs at 640 uM GlcN6P” value with glucosamine-6-phosphate [4] was below 1e-05 s⁻¹. For the same variant, in the series with glucosamine-6-phosphate [5], the “self-cleavage kobs at 2500 uM GlcN6P” value was below 1e-05 s⁻¹. Besides, in the series with glucosamine-6-phosphate [2], the “self-cleavage kobs at 10000 uM GlcN6P” value is below 1e-05 s⁻¹.
Consider G40A G62U, for which the “self-cleavage kobs at 40 uM GlcN6P” value in the series with glucosamine-6-phosphate [1] was below 1e-05 s⁻¹. In the series with glucosamine-6-phosphate [3], the “self-cleavage kobs at 160 uM GlcN6P” value was below 1e-05 s⁻¹. Moreover, the “self-cleavage kobs at 640 uM GlcN6P” value with glucosamine-6-phosphate [4] was below 1e-05 s⁻¹. The “self-cleavage kobs at 10000 uM GlcN6P” value with glucosamine-6-phosphate [2] was below 1e-05 s⁻¹.
On to A14U U55G C61G, for which the “self-cleavage kobs at 40 uM GlcN6P” value with glucosamine-6-phosphate [1] is below 1e-05 s⁻¹. Besides, the “self-cleavage kobs at 10000 uM GlcN6P” value with glucosamine-6-phosphate [2] was below 1e-05 s⁻¹.
For A33U G38U G40U, in the series with glucosamine-6-phosphate [1], the “self-cleavage kobs at 40 uM GlcN6P” value is below 1e-05 s⁻¹.
On to A48U U56A C58A, for which, in the series with glucosamine-6-phosphate [1], the “self-cleavage kobs at 40 uM GlcN6P” value is below 1e-05 s⁻¹.
On to G29C U45C G62A, for which the “self-cleavage kobs at 40 uM GlcN6P” value with glucosamine-6-phosphate [1] was below 1e-05 s⁻¹. In addition, in the series with glucosamine-6-phosphate [5], the “self-cleavage kobs at 2500 uM GlcN6P” value was below 1e-05 s⁻¹.
In the case of A33G G59C, the “self-cleavage kobs at 40 uM GlcN6P” value with glucosamine-6-phosphate [1] is below 1e-05 s⁻¹. The “self-cleavage kobs at 160 uM GlcN6P” value with glucosamine-6-phosphate [3] was below 1e-05 s⁻¹. Besides, the “self-cleavage kobs at 640 uM GlcN6P” value with glucosamine-6-phosphate [4] was below 1e-05 s⁻¹. Besides, in the series with glucosamine-6-phosphate [5], the “self-cleavage kobs at 2500 uM GlcN6P” value was below 1e-05 s⁻¹. The “self-cleavage kobs at 10000 uM GlcN6P” value in the series with glucosamine-6-phosphate [2] is below 1e-05 s⁻¹.
Take G13C A15C G51U: the “self-cleavage kobs at 40 uM GlcN6P” value with glucosamine-6-phosphate [1] is below 1e-05 s⁻¹.
Regarding A14G A39U U56C, in the series with glucosamine-6-phosphate [1], the “self-cleavage kobs at 40 uM GlcN6P” value stood at 0.000144 ± 2.6e-05 s⁻¹. For the same variant, the “self-cleavage kobs at 10000 uM GlcN6P” value with glucosamine-6-phosphate [2] was determined as 0.00921 ± 0.0012 s⁻¹.
Regarding A12G G32A, the “self-cleavage kobs at 40 uM GlcN6P” value with glucosamine-6-phosphate [1] is below 1e-05 s⁻¹. Besides, the “self-cleavage kobs at 160 uM GlcN6P” value with glucosamine-6-phosphate [3] is below 1e-05 s⁻¹. The “self-cleavage kobs at 10000 uM GlcN6P” value with glucosamine-6-phosphate [2] came out at 5.21e-05 ± 7.4e-06 s⁻¹.
For the variant U56C G62U, the “self-cleavage kobs at 40 uM GlcN6P” value in the series with glucosamine-6-phosphate [1] was below 1e-05 s⁻¹. Moreover, the “self-cleavage kobs at 10000 uM GlcN6P” value with glucosamine-6-phosphate [2] was below 1e-05 s⁻¹.

These data come from the supplement of paper PMC7125110.
